Tests used:
[1] = target: cynomolgus monkey MASP-2 of cynomolgus monkey serum (cynomolgus monkey); test: cell-based or functional assay
[2] = target: Fc-hMASP-2A-CCS (human) [IgG part: P01857]; test: ELISA according to Example 5, plate coated with Fc-hMASP-2A-CCS
Sequence of Fc-hMASP-2A-CCS (human) [IgG part: P01857] (P01857 other isoform, or with tags, fused parts or gaps limits assumed, form in doubt): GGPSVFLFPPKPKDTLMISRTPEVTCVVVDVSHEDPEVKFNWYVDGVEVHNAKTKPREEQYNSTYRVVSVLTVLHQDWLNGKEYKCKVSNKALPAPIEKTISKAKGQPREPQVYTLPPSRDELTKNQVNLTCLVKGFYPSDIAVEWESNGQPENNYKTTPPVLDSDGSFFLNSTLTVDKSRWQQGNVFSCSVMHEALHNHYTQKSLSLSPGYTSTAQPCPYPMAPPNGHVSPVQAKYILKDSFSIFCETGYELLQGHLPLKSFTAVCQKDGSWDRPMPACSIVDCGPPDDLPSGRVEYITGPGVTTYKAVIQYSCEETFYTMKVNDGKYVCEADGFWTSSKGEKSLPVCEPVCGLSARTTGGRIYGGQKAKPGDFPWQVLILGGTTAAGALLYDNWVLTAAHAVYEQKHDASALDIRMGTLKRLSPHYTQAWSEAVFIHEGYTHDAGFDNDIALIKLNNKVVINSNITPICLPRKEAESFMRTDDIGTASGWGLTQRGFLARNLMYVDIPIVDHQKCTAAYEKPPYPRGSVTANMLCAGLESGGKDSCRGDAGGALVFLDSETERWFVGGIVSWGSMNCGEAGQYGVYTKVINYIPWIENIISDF

Narsoplimab (antibody)
IC50 of inhibition of MASP-2-catalyzed C4 cleavage in 90% cynomolgus monkey serum [1]: 94 nM | EC50 [2]: 0.227 nM
